# Measured values reported in US9555344.
# Key:
# Concanavalin A [1] = biological target: Concanavalin A (UniProt P02866); test: Con A Sepharose affinity chromatography (Con A assay); bound albumin as percent of load
# Concanavalin A [2] = biological target: Concanavalin A (UniProt P02866); test: Con A Sepharose affinity chromatography, 100 mg rHA loaded; albumin monomer in eluate by GP-HPLC as percent of load; sample final product
# Concanavalin A [3] = biological target: Concanavalin A (UniProt P02866); test: Con A Sepharose affinity chromatography, 100 mg rHA loaded; albumin monomer in eluate by GP-HPLC as percent of load; sample PBA flow through & washings
# Concanavalin A [4] = biological target: Concanavalin A (UniProt P02866); test: Con A Sepharose affinity chromatography, 100 mg rHA loaded; albumin monomer in eluate by GP-HPLC as percent of load; sample SP-FF2 flow through & washings
Substance,content of Con A binding material (Concanavalin A [1]),ConA-binding rHA (% of load) (Concanavalin A [2]),ConA-binding rHA (% of load) (Concanavalin A [3]),ConA-binding rHA (% of load) (Concanavalin A [4])
rHA purified from the Pichia pastoris culture medium in accordance with the process of Example 1 (from UniProt P02768 25-609),0.22 % (w/w),,,
rHA used to spike the Pichia culture medium (from UniProt P02768 25-609),0.57 % (w/w),,,
"recombinant human albumin (rHA) from a non-mutant (non-pmt1) Saccharomyces cerevisiae strain, purified by the process of Example 1 (from UniProt P02768 25-609)",,0.28 % of load,0.55 % of load,0.32 % of load
